This note sets out measurements from US20080253962A1 (Bristol-Myers Squibb, published 2008).

Broadly, the Kd is the concentration at which binding is half-saturated. As a reminder, the koff is the rate constant with which the complex falls apart. Low readings indicate a long-lived complex, high ones a short-lived complex. By kon is commonly meant the rate constant with which the complex forms.

The target in assay [1] is T1, IRTA4, full length transmembrane form with N-terminal myc tag, expressed on transfected CHO cells (human, UniProt Q96LA5 20-508).
T1 construct: Full length cDNA in CHO cells; also called human IRTA-4; CHO line transfected with IRTA4; not shown: myc tag at the N-terminus
T1 sequence: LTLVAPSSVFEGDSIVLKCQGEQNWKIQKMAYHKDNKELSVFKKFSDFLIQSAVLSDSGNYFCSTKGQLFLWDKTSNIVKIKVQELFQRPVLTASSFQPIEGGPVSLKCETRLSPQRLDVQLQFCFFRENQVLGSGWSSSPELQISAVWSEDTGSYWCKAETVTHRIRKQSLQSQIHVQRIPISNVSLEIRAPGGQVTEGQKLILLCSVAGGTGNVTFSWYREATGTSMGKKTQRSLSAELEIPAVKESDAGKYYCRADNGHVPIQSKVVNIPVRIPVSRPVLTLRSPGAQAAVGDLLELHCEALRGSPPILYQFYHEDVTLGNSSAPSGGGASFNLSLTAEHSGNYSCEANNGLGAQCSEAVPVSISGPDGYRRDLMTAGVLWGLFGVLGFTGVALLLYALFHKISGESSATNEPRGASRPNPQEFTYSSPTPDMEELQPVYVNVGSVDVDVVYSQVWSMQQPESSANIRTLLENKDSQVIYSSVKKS
Nature of the assay: flow cytometry on IRTA4-transfected CHO cells, antibody at 10 µg/ml, FITC anti-human IgG detection, GMFI. The source says: (§1) Chinese hamster ovary (CHO) cell lines that express one of each of the five IRTA proteins at the cell surface were developed and used to determine the specificity of the IRTA4 monoclonal antibodies by flow cytometry. CHO cells were transfected with expression plasmids containing full length cDNA encoding transmembrane forms of IRTA1, IRTA2, IRTA3, IRTA4, or IRTA5. In addition, the transfected proteins contained a myc tag at the N-terminus for detection by anti-myc antibody. Binding of the two anti-IRTA4 monoclonal antibodies was assessed by incubating the transfected cells with each of the IRTA4 Abs at a concentration of 10 μg/ml. The cells were washed and binding was detected with a FITC-labeled anti-human IgG Ab. A murine anti-myc Ab followed by labeled anti-murine IgG was used as the positive control. Secondary antibody alone was used as a negative control. The results are depicted in FIG. 7. The IRTA4 monoclonal antibodies 9G11 and 13B1 bound to the CHO line transfected with IRTA4 but not to CHO lines expressing IRTA1, 2, 3 or 5 as measured by the mean fluorescent intensity (MFI) of staining.

In assay [2] the target is T2, IRTA1, full length transmembrane form with N-terminal myc tag, expressed on transfected CHO cells (human, UniProt Q96PJ5 20-515).
T2 construct: Full length cDNA in CHO cells; also called human IRTA-1; not shown: myc tag at the N-terminus
T2 sequence: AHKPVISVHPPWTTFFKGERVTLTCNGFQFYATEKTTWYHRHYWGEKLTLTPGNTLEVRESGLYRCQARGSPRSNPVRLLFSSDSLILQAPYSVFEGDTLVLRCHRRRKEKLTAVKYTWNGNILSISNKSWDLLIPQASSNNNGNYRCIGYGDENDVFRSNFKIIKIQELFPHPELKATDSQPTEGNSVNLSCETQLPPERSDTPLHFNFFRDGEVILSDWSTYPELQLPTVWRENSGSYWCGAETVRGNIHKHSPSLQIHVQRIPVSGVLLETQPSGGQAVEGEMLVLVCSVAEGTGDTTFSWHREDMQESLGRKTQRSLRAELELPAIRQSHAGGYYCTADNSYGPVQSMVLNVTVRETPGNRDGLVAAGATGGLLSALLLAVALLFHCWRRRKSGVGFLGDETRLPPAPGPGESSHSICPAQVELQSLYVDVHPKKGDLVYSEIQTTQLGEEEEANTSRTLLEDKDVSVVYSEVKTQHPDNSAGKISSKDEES
Nature of the assay: flow cytometry on transfected CHO cells, GMFI.
Text: as §1

In assay [3] the target is T3, IRTA5, full length transmembrane form with N-terminal myc tag, expressed on transfected CHO cells (human, UniProt Q96LA6 17-429).
T3 construct: Full length cDNA in CHO cells; also called human IRTA-5; not shown: myc tag at the N-terminus
T3 sequence: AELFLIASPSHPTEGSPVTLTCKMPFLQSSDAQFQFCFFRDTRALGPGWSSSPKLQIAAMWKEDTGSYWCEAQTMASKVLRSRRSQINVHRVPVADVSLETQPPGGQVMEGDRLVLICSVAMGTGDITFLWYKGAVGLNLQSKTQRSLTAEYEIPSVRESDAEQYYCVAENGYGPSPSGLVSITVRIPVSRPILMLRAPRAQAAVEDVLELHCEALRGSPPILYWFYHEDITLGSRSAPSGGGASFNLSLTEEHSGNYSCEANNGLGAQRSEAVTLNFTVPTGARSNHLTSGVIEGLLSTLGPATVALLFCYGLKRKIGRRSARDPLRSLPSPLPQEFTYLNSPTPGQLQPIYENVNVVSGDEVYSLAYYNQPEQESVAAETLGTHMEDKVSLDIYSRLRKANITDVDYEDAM
Nature of the assay: flow cytometry on transfected CHO cells, GMFI.
Text: as §1
In general terms: A flow cytometer gives signals particle by particle.

For assay [4], the target named is T4, IRTA2, full length transmembrane form with N-terminal myc tag, expressed on transfected CHO cells (human, UniProt Q96RD9 16-977).
T4 construct: Full length cDNA in CHO cells; also called human IRTA-2; not shown: myc tag at the N-terminus
T4 chain: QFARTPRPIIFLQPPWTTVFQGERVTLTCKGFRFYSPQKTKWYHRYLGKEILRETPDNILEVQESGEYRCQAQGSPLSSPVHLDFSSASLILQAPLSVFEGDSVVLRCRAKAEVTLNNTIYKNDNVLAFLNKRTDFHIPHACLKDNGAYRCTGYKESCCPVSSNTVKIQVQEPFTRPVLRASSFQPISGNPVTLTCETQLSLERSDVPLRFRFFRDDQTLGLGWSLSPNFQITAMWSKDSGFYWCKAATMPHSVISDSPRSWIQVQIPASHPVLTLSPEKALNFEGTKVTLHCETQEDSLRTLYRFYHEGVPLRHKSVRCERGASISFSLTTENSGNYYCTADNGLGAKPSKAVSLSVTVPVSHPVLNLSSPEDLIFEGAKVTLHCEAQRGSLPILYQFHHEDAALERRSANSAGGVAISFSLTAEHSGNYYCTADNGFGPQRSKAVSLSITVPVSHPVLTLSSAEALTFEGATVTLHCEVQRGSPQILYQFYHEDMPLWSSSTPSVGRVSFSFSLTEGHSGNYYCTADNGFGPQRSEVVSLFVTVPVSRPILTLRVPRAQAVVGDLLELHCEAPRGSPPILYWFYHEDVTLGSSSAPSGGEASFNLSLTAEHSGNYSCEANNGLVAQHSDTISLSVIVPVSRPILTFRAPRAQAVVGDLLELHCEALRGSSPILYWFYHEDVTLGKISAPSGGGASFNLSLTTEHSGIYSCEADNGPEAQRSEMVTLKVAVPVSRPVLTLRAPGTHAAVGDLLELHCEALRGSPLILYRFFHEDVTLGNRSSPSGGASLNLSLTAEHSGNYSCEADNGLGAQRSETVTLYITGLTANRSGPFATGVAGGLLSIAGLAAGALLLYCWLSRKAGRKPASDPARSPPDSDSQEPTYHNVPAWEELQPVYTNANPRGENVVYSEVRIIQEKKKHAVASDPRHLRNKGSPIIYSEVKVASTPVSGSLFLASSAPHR
Put plainly: flow cytometry on transfected CHO cells, GMFI.
Text: as §1

Assay [5] concerns the target T5, IRTA3, full length transmembrane form with N-terminal myc tag, expressed on transfected CHO cells (human, UniProt Q96P31 18-734).
T5 construct: Full length cDNA in CHO cells; also called human IRTA-3; not shown: myc tag at the N-terminus
T5 sequence: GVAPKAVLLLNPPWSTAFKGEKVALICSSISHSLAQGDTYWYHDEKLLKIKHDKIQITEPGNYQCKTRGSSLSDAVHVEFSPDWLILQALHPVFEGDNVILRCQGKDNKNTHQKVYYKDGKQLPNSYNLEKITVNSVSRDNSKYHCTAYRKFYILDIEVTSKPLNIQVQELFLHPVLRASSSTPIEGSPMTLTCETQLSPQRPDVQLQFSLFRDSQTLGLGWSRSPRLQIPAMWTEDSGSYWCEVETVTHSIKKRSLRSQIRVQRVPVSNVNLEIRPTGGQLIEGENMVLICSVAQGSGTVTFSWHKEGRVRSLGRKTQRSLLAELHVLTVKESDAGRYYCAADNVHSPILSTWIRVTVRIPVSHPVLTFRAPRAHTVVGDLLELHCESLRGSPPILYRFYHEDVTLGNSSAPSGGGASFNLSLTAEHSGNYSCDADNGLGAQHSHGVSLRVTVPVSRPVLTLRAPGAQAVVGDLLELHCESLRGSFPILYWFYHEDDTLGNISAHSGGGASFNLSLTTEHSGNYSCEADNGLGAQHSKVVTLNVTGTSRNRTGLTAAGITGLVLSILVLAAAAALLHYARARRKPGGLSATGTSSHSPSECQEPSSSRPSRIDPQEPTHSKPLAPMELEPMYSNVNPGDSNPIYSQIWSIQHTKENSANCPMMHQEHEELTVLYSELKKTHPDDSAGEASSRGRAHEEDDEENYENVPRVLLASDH
Put plainly: flow cytometry on transfected CHO cells, GMFI.
Text: as §1

Assay [6] deals with T6, IRTA4-C9 antigen (fusion protein composed of the extracellular domain of the IRTA4 linked to the carboxy … (human, UniProt P02699 340-348 (bovine entry))).
T6 construct: domain: carboxy terminal nine amino acids
T6 sequence: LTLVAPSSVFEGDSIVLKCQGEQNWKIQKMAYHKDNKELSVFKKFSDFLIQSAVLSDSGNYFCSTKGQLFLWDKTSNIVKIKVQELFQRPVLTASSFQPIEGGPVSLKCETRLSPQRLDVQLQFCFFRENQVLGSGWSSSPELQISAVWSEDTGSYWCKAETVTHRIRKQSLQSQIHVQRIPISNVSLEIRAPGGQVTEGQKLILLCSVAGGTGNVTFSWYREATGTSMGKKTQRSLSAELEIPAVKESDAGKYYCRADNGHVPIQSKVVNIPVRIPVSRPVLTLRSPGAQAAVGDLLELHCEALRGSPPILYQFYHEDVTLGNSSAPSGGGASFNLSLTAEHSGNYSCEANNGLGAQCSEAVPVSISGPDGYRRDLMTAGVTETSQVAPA
Put plainly: Biacore SPR, antibody captured by anti-human IgG on CM5 chip, IRTA4-C9 flowed at 50-400 nM, 1:1 Langmuir fit. On the procedure: Anti-IRTA4 antibodies were characterized for affinities and binding kinetics by Biacore analysis (Biacore AB, Uppsala, Sweden). Purified anti-IRTA4 monoclonal antibodies were captured by anti-human IgG antibody covalently linked to a CM5 chip (carboxy methyl dextran coated chip) via primary amines, using standard amine coupling chemistry and kit provided by Biacore. Binding was measured by flowing the IRTA4-C9 antigen (a fusion protein composed of the extracellular domain of the IRTA4 linked to the carboxy terminal nine amino acids of rhodopsin) in HBS EP buffer (provided by Biacore AB) at concentrations of 400, 300, 200, 100, and 50 nM at a flow rate of 20 μl/min. The antigen-antibody association kinetics was followed for 10 minutes and the dissociation kinetics was followed for 10 minutes. The association and dissociation curves were fit to a 1:1 Langmuir binding model using BIAevaluation software (Biacore AB).

B1: 9G11 human monoclonal antibody (antibody, V domains shown)
VH: QVQLVQSGAEVKKPGASVKVSCKASGYTFTSYAMHWVRQAPGQRLEWMGWINVGNGNTRYSQKFQGRVTITRDTSASTAYMELSSLRSEDTAVYYCAREGSNGWHEDFDYWGQGTLVTVSS
VL: EIVLTQSPATLSLSPGERATLSCRASQSVSSYLAWYQQKPGQAPRLLIYDASNRATGIPARFSGSGSGTDFTLTISSLEPEDFAVYYCQQRSDWPPSLTFGGGTKVEIK
notes: Hybridoma-derived fully human IgG with kappa light chain from KM mice; also called anti-IRTA4 HuMAb 9G11
For the molecule B1, the binding result in assay [1] was “binds”; in assay [2], “no binding (tested: 10 µg/ml)”; in assay [3] it was “no binding (tested: 10 µg/ml)”; in assay [4], “no binding (tested: 10 µg/ml)”; in assay [5], “no binding (tested: 10 µg/ml)”. The affinity in assay [6], expressed as Kd, was 2.8 nM. In assay [6], the koff worked out at 7.4e-05 s⁻¹. The same molecule yielded a kon in assay [6] of 26300 M⁻¹ s⁻¹.

B2: 13B1 human monoclonal antibody (antibody, V domains shown)
VH: QVQLVQSGAEVKKPGASVKVSCKASGYNFNSYDISWVRQAAGQGLEWMGWMNPNSGYTSYAQKFQGRVTMTWNTSISTAYMELSSLRSEDSAVYYCAREGIVGAIGWFDPWGQGTLVTVSS
VL: DIQMTQSPSSVSASVGDRVTITCRASQGISSWLAWYQHKPGKAPKLLIYAASSLQSGVPSRFSGSGSGTDFTLTISSLQPEDFATYYCQQANSFPLTFGGGTKVEIK
notes: Hybridoma-derived fully human IgG with kappa light chain from KM mice; also called anti-IRTA4 HuMAb 13B1
Regarding B2, the binding result in assay [1] is on record as “binds”; in assay [2] it was “no binding (tested: 10 µg/ml)”; in assay [3], “no binding (tested: 10 µg/ml)”; in assay [4] it was “no binding (tested: 10 µg/ml)”; in assay [5] it was “no binding (tested: 10 µg/ml)”. The same molecule displayed an equilibrium dissociation constant (Kd) in assay [6] of 3.48 nM. In addition, the koff in assay [6] turned out to be 0.000426 s⁻¹. The molecule also registered a kon in assay [6] of 125000 M⁻¹ s⁻¹.
